The data set can be described thus: soluble on expression in E. coli; label from the status in PepcDB or PDB records.
“MHHHHHHSSGVDLGTENLYFQSMQRGYLLTRNPHLNKDLAFTLEERQQLNIHGLLPPSFNSQEIQVLRVVKNFEHLNSDFDRYLLLMDLQDRNEKLFYRVLTSDIEKFMPIVYTPTVGLACQQYSLVFRKPRGLFITIHDRGHIASVLNAWPEDVIKAIVVTDGERILGLGDLGCNGMGIPVGKLALYTACGGMNPQECLPVILDVGTENEELLKDPLYIGLRQRRVRGSEYDDFLDEFMEAVSSKYGMNCLIQFEDFANVNAFRLLNKYRNQYCTFNDDIQGTASVAVAGLLAALRITKNKLSDQTILFQGAGEAALGIAHLIVMALEKEGLPKEKAIKKIWLVDSKGLIVKGRASLTQEKEKFAHEHEEMKNLEAIVQEIKPTALIGVAAIGGAFSEQILKDMAAFNERPIIFALSNPTSKAECSAEQCYKITKGRAIFASGSPFDPVTLPNGQTLYPGQGNNSYVFPGVALGVVACGLRQITDNIFLTTAEVIAQQVSDKHLEEGRLYPPLNTIRDVSLKIAEKIVKDAYQEKTATVYPEPQNKEAFVRSQMYSTDYDQILPDCYSWPEEVQ”: the “soluble on expression in E. coli” value was “soluble”. The same measure for “TLKEMKYKRNQEEIETYYEYTLKIEAINNEMRKFRHDYVNILTTLSEYIREDDMIGLRAYFNKNIVPMKDNLQMNAIKLNGIENLKVREIKGLITAKILRAQEMNIPISIEIPDEVSSINLNMIDLSRSIGIILDNAIEASTEIDDPIIRVAFIESENSVTFIVMNKCADDIPRIHELFQESFSTKGEGRGLGLSTLKEIADNADNVLLDTIIENGFFIQKVEIINN”: “not soluble”. The same measure for “CNFRSTETIVNWVNDHFSKIFSQQVDIESGAVSFHPSVHVIEKNESSTIQAVQFKNREQEARHLIEIINSELNRNPEQTIAVLVRTRTQLPEIISLLRQNNIPYQGTDIDLLANLVHLRDVWSLAHALLFPGNRLSWLSILHSPYVGLGLSDIHCIAQYNSRKSIYHNLLHLDKIQDISEEGRIRANFFIQIMNQALLCRSHSRLSDWIADTLKNLHVEKILDKAQLNDLEQLWMLLDQYEKEGRIPDMNEFLNEFNKLYAQQTTPSRLQIMTIHKSKGLEFDTVILPGLGSQANRGESPMLRWLKLPTQDHGNLLLVSPIKSANQDNCPLYDYLDQLDEEKSAYEAQRLLYVAVTRAKSRLYLLDHSAKSYKSS”: “not soluble”. Regarding “MEKSAGRGRPSVSVERIVATALEAVDEVGAQAFNMRMLAERLGSGTATLYRHFASKDEILIYVVDSVLGELLADQPEAVELVPQGQGSEGYSWQKACASGAERLYGVLRRHPGILPLLVSQIPIGPNGLKRREQGIALFLANGFPAELAARAYTSVAHYVLGFAIQQHSSASSEAAEGEELVEFFAALDASEYPAIATAGRHLPGISVEEEFRFGLKLIIDGLELAASAWRKADGC”, the “soluble on expression in E. coli” value was “not soluble”. To “MGSDKIHHHHHHMAIDLLNIARTGVLASQSQLGVTSNNIANANTVGYHRQVATQTTLDSQRLGSSFYGTGTYVSDVKRIYNDYAARELRIGQTTLSAAEASYGKLSELDQIFSQIGKVVPQSLTDLFAGLNSLADLPADLGIRSSTLNDAKQLANSLNQMQSTLNGQLNQTNDQITGMTKRINEISTELANLNLELMKSPNQDPILLDKQDALVQELSQYAQVNVIPLENGAKSIMLGGSIMLVSGEVAMSMSTATGDPFPNELQLMSSIGSQSVKADPSKLGGQLGALFEYRDQTLVPASLELDQLALGVADSFNKLQAQGFDLNGQVGANMFKDINDPLMSLGRVGGFTDNTGNATLGVNIDDTSALTGGSYELSFTAPSTYELRDTQRARLLRLP” belongs “not soluble”; to “MNSQNPDDHEDTTVVGFEVPVSPVSSYNNVYSSTEDETRDPPAVPPHLQHSLLGNQGSMELAYAPQNVVLNHLYIENRDAPRSVVALGFSHRFRTKFVTVVIYKPVQRRGSANV”, “not soluble”; to “MSLTDLNRTDLNRTDLNRTDLNRTDLNRTALPSRTDGTVEKTDTLVVGAGQAGVAMSEHLSRLGVPHLVLERNRIAEAWRSGRWDSLVANGPAWHDRFPGMEFDIDPDGFPGKDQVAAYFEAYAKKFDAPIRTGVEVRKVVRNVGRPGFTVETSAGTIEANRVVAATGPFQRPVIPPIAPRDERIRQIHSAHYYNPQQLPEGAVLVVGAGSSGVQIADELQRAGRQVYLSVGAHDRPPRSYRNRDFCWWLGVLGEWDAEVAKPGREHVTIAVSGARGGHTVDFRALAHQGVTLVGLTESFVDGVATFRPDLAENLARGDENYLALLDAADAYIARNGLDLPEEPEARRRLPDPQCVTDPILELDLAEAGVGSIIWATGYAVDFGWLQVDAFDRDGKPRHQRGVSSEPGVYFIGLPWLSRRGSSFIWGVWHDARHVADHIAIQRKYLAYRDAAQRQEQDRASQAPQTSLQEVSEGHHHHHH”, “soluble”.

Regarding “MGSDKIHHHHHHMTRLCRTFQTAPAAIPNDNSAKFLVSGLTSKGFQAPDWLVPDIEDGTAPSMKDEAVDNIIEHIPDHADDFAGDILPRVEWAYDDANARERGIEQVTRLAEAVGEELDGFVFPKVGRLDDVRDAAGVIADAERDAGLPEGTLEMAIILETAPGRSDLREICQYATDSRLSGLVFGPVDYTAELGGRTLDGERPRWDGLLEALSNETSAADIVAIGGPFDQLFHERAGVTYYNAEGYADQVAYEATIGIDGSWSLHPKQTEQANRIHMPTVEEMERDLHKIESFNEAKREGTGAVVVDGQMVDEATYKNFANTVKTVRAIDETHPAQTEAYYDDDLLARARDVELIFG”, the “soluble on expression in E. coli” value is “not soluble”. For “MTTTDVSWPKSLWHAVTGPGPGLPALHGAEEADVVVVGGGFSGLSTALHLREAGVDVAVVEAAEPGWGASGRNNGQVIPTLSRPDPEDIVAKHGAAGERLVGLIRDSASILFDVAKRHGVDAEQEQNGWVQPVHSPGRIKIAERRFRQWSKFGAPVELLSRDQVRDMLGSEAWFGGFWNRTGGHVNPLALARGLARAVLAQGGRIFARSPAVSIERRGDRWIVKTAQGEISGRALVVASNAYTGEFSKTLAPAIASEVMPVRSWQMATQPLSDNVRKTIIPGRQAMSDTHGELIFGRFDARNRFVTGGAIIRPFNQIATLKARVGKRLQRLWPQIGEVRFDYVWNGFIGMTTDYLPHIHRLGPNAYGWTGCNGRGVALSVALGRELSKAVRGVTDGELALPFTEPTPIPANELLRPFAPLMMVLYRHRDAKEIGLEHHHHHH”, the “soluble on expression in E. coli” value is “not soluble”. To “MYKTIIMPVDVFEMALSDKAVRHAEFLAQQDGVIHLLHVLPGSASFTMSRFTADLRRFEEHLQHEAETRLQTMVSHFSIDPSRIKLHVRFGSVRDMVNELASEINADVVVIGSRNPSISTHLLGSNASSVIRHAHIPVMVVR” belongs “not soluble”; to “MSSPSGSSRTFPQYQSGSGWNAMLPKRTPRTAAPARRHFKSLVIGAGYTGLAAARRLAELQPQDQVLVVDATVAGEGSAGRNSGFLINLPHNTRMSGHHSPLEVARKQIAMLQSGLDWLAQLSGQGGFDCGWDLAGKYHAAATADGEQSLRGALQQYGQWGVAFSELDRDALQAQLGTRYYRFGYHSMNNVFVQPAALIRGLADSLPENVWLMEDNPVLSIDGSGPYKVRTRGGEFTADNVILANNAFARRLGFLRSRLVTIFTYAGVTPVLSPAQQALLGERDQWGVIPANRLGTTLRRISGGRFMVRSAYSYEAEQPLERMEQLLRDSFVRRYPDLAAHDFEYVWSGSTGLTGNGASFVGAIQPGLYASVGCNGAGVIKGTIYGKLLGEQVAGHRSAMLDDLASFEKPNWLPPEPLRRIGALSTIAYQARKAGLEKLEHHHHHH”, “not soluble”; to “MRYIMASPINSGIMMANLCPSTFLDKNRNVAAELDIKNNEKKYSPGSNFAKWMLQEIKRLILNIMSGSRSINTDILDYFHPMPGTENNGNRTWVAATGEDEYIEIKQTGDKSFNITLVGRDKPSRKEIPYSGVAVATIIKSLSEKTSALETHSADTVLRKKLVNSIVMKNTDFNYEIPAGILSNIYDLLKLRIKKDEGYVPVQESFKRTDVFFDSMIMDAH”, “not soluble”. The same measure for “MKKALQVAMFSLFTVIGFNAQANEHHHETMSEAQPQVISATGVVKGIDLESKKITIHHDPIAAVNWPEMTMRFTITPQTKMSEIKTGDKVAFNFVQQGNLSLLQDIKVSQ”: “soluble”. For the sequence “MSALASKLFAKCAAGGRALQSQAVRQFSAYPIDDSMFGLNDEEIALRQSIRQFADKELAPYADKIDKDNGWDQLRPFWKKLGDQGLLGITAPAEYGGSGMNYFSHVIAMEELSRAAGGIALSYGAHSNLCINQIVRNGSEEQRKKYLPKLISGEHMGALAMSEAQAGSDVVSMKLRAEKKGDKYVLNGTKFWITNGPDADVLVVYAKTDPSKHQHGITCFLVEKNTPGFSQSPKLDKLGMRGSNTCELVFDNCEIHESQIMGGKGKGVYVLMTGLDYERLVLSGGPLGLMQAACDIAFDYAHQRTAFGQKIGSFQLLQGKLADMYTTLNASRSYLYMVAKAADKGNVSNKDCAGVILYVAEKCTQVCLDAIQILGGNGYINDYPAGRLLRDAKLYEIGAGTSEVRRLIIGRALNKEYSN”, the “soluble on expression in E. coli” value is reported as “not soluble”. For “MGSDKIHHHHHHMISNLYFVKLKNIGEHEFIKRYIKNYMDIKLLDDVFINEKRGYKVDGFKLSYAFPFMSLYDIGWKAISASTSDIIAKGVKPEFYLISLGLPPDFDVNKAEELIGGISDAIHYYGGRYVGGDLNDSDSNGWVDVFVEGEVLCDISDKVIDDGDLLVIGDYIGYTTNVFISYINNFNIQILPESLLKVKHPIVKKSLLFFMKKYCKFIKYSTDISDGLMVSLYKIVDNFNLGINITEIPIDKNVFNSLKLRLNLTELDILKYAGEEFLPLLIIDKNSPVKEMLAELQYLAFNPLIIGQVIHENRLITYKNTVIKNTGWDNFIGWY”, the “soluble on expression in E. coli” value is reported as “not soluble”. To “MFHLSSLICCGCKPNFLGFERHHPFYDNDKKRICSSECGHSLCKKCFETYKNCPICAKPLVRIDNFMAREIYAFLKKTPMIVFDMWWNRSQNPSSTGRCSTCHKYDRILRWCITCEKDLKNSEAEWRRPKIEPNTDLQKELIKVSKERFRFGILANRVICSDCFLEHHAGHRVIFLDEMISALTEYSISDSATHLVQRFLWREIEERRGKCLLRTMRMKRAFLKLFYLACDSDLTDDYNDLPKFFERLDDWKVPDGYMEKVRKNLEHQFASANVPWKDCECRYAMRIMNDMFSFKNQIEKLFVSIVNDLDLHEITECPFKNSQITDMLQKTKKMVDIQLYKLYTLFCWNNYKDGVFELFNNSNRLPTKCCLCKMSTCAECWDEEPHKCGICDDATTSSRTDPDIVVLELVKHYKENCISLLEAWWECDAAQLGFCLNCASYTEDLEICVYCELDVERSALKTEVETSAEFTKDMQLRFTYKGLSGFPMRWQCSDCTTRHRKPTADVWNKGCNHFRYRSMYASVSSECFAHNHKSPCLRLKEIKNYDLAMKAATFGLVFKIIKEGIKEHVGSEHARKEILET” belongs “not soluble”. As to “MKETEILNRAYNYMCTYHKDDATGHDIAHINRVLRLATYIAEQEQSQHMLTIQLASLLHDTVDSKLTNHEKALTKLKSFLKDLQLPKEQQQHILHIIKHISYRHGQNNEVSLTLEGQIVRDADRLDAIGAIGIARTFQFAGHFNEPMWVEHSTKHITETDDAHYDQWSPSAIKHFYEKLLKLKSLMHTETAKQLAAQRHQYMENFINQFFEEWYFLEHHHHHH”, the “soluble on expression in E. coli” value is reported as “soluble”.

The record behind these values is the DeepSol protein solubility set.
